# Legend:
# [1] = system: mature TGFβ1 in HEK293T cells; assay: ELISA of TGF-β1 levels in culture medium of HEK293T cells transfected with LAP-TGF-β1-FLAG and integrin α7-FLAG; assay type: cell-based; conditions: purified protein 24 hours
# Experimental: The β-actin serves as a loading control. […] The GAPDH serves as a loading control. […] The mRNA is extracted using the Trizol method and reverse transcribed to obtain cDNA. […] Cells are transfected with different plasmids of LAP-TGF-β1-FLAG and the integrin α7-FLAG, and treated with the purified AGGF1 or AGGF1-RDDdel for 24 hours, with grouping as shown in FIG. K. *, P<0.05; **, P<0.01; ***, P<0.001; n≥3/group.
# In vitro experiments were performed using aortic smooth muscle cells and HEK293T cells. As shown in A-C of FIG. 8 and A-F of FIG. 9, whether with recombinant AGGF1 protein, AGGF1-FLAG overexpression, or AGGF1 silencing, Western blot analysis and ELISA experimental results verified that AGGF1 inhibits the TGFβ1 signaling pathway (Smad3 and ERK1/2) and the level of the mature TGFβ1. […] In the Western blot analysis of FIG. 10, it was verified that LAP-TGFβ1 interacts with integrin α7 through the RGD sequence, which is also the molecular mechanism by which integrin α7 inhibits TGFβ1.
# [2] = system: TAC-induced mouse aneurysm model; assay: TAC (transverse aortic constriction)-induced aneurysm model, i.p. recombinant AGGF1 or AGGF1-RDDdel protein; assay type: in vivo, C57BL/6 mice
# From the text: RCAs are harvested after 21 days for the histological staining. […] The bar graphs at the bottom show the intima thickness (1st graph), the adventitia thickness (2nd graph), the total arterial wall thickness (3rd graph), a media cell density (4th graph), and the adventitia cell density (5th graph). […] The bar graphs on the right show the percentage of the collagen area and the percentage of the α-SMA positive area. * P<0.05; **, P<0.01; ***, P<0.001; a mouse sample size n=6/group.
# RCAs are harvested after 21 days for the histological staining and the western blot analysis. […] Bar graphs below show the percentage of the MCP1-positive cell area and the CD68-positive cell area. […] The β-actin serves as a loading control. […] The β-actin serves as a loading control. *, P<0.05; **, P<0.01; *** P<0.001; a mouse sample size n=6/group, other sample sizes n=4/group.
# The bar graph on the right illustrates the luminal diameter of the ascending aorta. An ascending aortic tissue is harvested after 21 days for the histological staining. […] The bar graphs below display the intimal thickness (1st graph), the adventitia thickness (2nd graph), the total arterial wall thickness (3rd graph), the medial cell density (4th graph), and the adventitia cell density (5th graph). *, P<0.05; **, P<0.01; ***, P<0.001; a mouse sample size n=6/group.
# The ascending aortic tissue is harvested for the histological staining 21 days after the surgery. […] Below are quantitative bar graphs showing the quantitation of the percentage of the positive area for each corresponding stain. *, P<0.05; **, P<0.01; *** P<0.001; a mouse sample size n≥6/group.
# FIG. 7 depicts that the intraperitoneal injection of the purified human AGGF1 protein, dependent on the RDD sequence, attenuates a TAC-induced ascending aortic TGF-β1 maturation and a signaling pathway, as well as the ERK1/2 signaling pathway. The RCAs are harvested after 21 days for the western blot analysis. […] The β-actin serves as a loading control. […] The β-actin serves as a loading control. *, P<0.05; **, P<0.01; ***, P<0.001; sample size n=4/group.
# The research team obtained blood vessel samples from the thoracic aorta of 8 normal individuals and 8 patients with the thoracic aortic aneurysm from the hospital. […] Subsequently, the research divided C57BL/6 mice into 6 groups: after sham surgery, they were divided into a buffer group, an AGGF1 group, and an AGGF1-RDD^del group (Sham+buffer, Sham+AGGF1, Sham+AGGF1-RDD^del), and after the TAC surgery, they were divided into a buffer group, an AGGF1 group, and an AGGF1-RDD^del group (TAC+buffer, TAC+AGGF1, TAC+AGGF1-RDD^del), with each group having mice ≥6. Buffer was protein elution solution. 21 days after the TAC surgery, Doppler ultrasound was used to detect vascular luminal diameter, and carotid artery and aorta were collected for histological staining and Western blot to evaluate the effect of AGGF1. Starting from the second day after the surgery, recombinant AGGF1 protein or AGGF1-RDD^del protein was administered through intraperitoneal injection in the mice, with the same dose of EB as control, once every 2 days for 3 weeks. The protein dosage was 0.5 mg/kg.
# [3] = system: TAC-induced mouse aneurysm model; assay: as above; assay type: in vivo, C57BL/6 mice; conditions: 0.5 mg/kg i.p., day 21
# [4] = system: BAPN-induced aortic aneurysm; assay: β-aminopropionitrile (BAPN)-induced aortic aneurysm model; assay type: in vivo, C57BL/6 male mice; conditions: BAPN-fed mice
# From the text: FIG. 14 depicts an AGGF1 treatment for a β-aminopropionitrile (BAPN)-induced aortic aneurysm. […] The bar graphs below show the intimal thickness (1st image), the adventitia thickness (2nd image), and the total carotid artery wall thickness (3rd image). […] The bar graphs on the right show the percentage of the positive area for respective immunostaining quantifications. […] The GAPDH serves as a loading control. *, P<0.05; **, P<0.01; ***, P<0.001; n≥8/group for mouse studies, other sample sizes n=4/group.
# β-aminopropionitrile is a lysyl oxidase (LOX) inhibitor that is readily soluble in water. Three-week-old mice fed with 0.25% BAPN have a very high incidence of the thoracic aortic aneurysm after 4 weeks. Three-week-old C57BL/6 male mice were divided into 4 groups, with ultrasound detection of the aorta on day 28, followed by euthanasia and collection of the aorta for Western Blotting experiments and histochemical staining.
# [5] = after TAC vs buffer, 0.5 mg/kg i.p. once every 2 days for 3 weeks, day 21
# [6] = after TAC, 0.5 mg/kg i.p., day 21
# [7] = regardless of sham or TAC surgery, 0.5 mg/kg i.p.
molecule,measurement,setting,value
"AGGF1 protein: recombinant human AGGF1 protein with His tag, SEQ ID NO:1, expressed from pet28-AGGF1 in Escherichia coli BL21 (DE3) (protein, listed as Homo sapiens, His tag) MASEAPSPPRSPPPPTSPEPELAQLRRKVEKLERELRSCKRQVREIEKLLHHTERLYQNAESNNQELRTQVEELSKILQRGRNEDNKKSDVEVQTENHAPWSISDYFYQTYYNDVSLPNKVTELSDQQDQAIETSILNSKDHLQVENDAYPGTDRTENVKYRQVDHFASNSQEPASALATEDTSLEGSSLAESLRAAAEAAVSQTGFSYDENTGLYFDHSTGFYYDSENQLYYDPSTGIYYYCDVESGRYQFHSRVDLQPYPTSSTKQSKDKKLKKKRKDPDSSATNEEKDLNSEDQKAFSVEHTSCNEEENFANMKKKAKIGIHHKNSPPKVTVPTSGNTIESPLHENISNSTSFKDEKIMETDSEPEEGEITDSQTEDSYDEAITSEGNVTAEDSEDEDEDKIWPPCIRVIVIRSPVLQIGSLFIITAVNPATIGREKDMEHTLRIPEVGVSKFHAEIYFDHDLQSYVLVDQGSQNGTIVNGKQILQPKTKCDPYVLEHGDEVKIGETVLSFHIHPGSDTCDGCEPGQVRAHLRLDKKDESFVGPTLSKEEKELERRKELKKIRVKYGLQNTEYEDEKTLKNPKYKDRAGKRREQVGSEGTFQRDDAPASVHSEITDSNKGRKMLEKMGWKKGEGLGKDGGGMKTPIQLQLRRTHAGLGTGKPSSFEDVHLLQNKNKKNWDKARERFTENFPETKPQKDDPGTMPWVKGTLE",inhibition of mature TGFβ1 by integrin α7,[1],enhance
same,ascending aortic expansion (FIG. 5),"[2]; TAC, 0.5 mg/kg i.p., day 21",significantly inhibit
same,"vascular thickening (H&E staining, ascending aorta, FIG. 5)","[2]; TAC, 0.5 mg/kg i.p., day 21",significantly inhibit
same,"vascular expansion (right carotid artery, FIG. 3)",[2]; [5],significantly inhibit
same,"vascular remodeling (right carotid artery, FIG. 3)",[2]; [5],significantly inhibit
same,"vascular inflammation (MCP-1, CD68; right carotid artery, FIG. 4)","[2]; after TAC vs buffer, 0.5 mg/kg i.p., day 21",significantly inhibit
same,inflammation of the ascending aorta (FIG. 6),[2]; [6],inhibited
same,remodeling of the ascending aorta (FIG. 6),[2]; [6],inhibited
same,"level of the mature TGFβ1 (Western blot, RCA, FIG. 4)",[2]; [7],inhibit
same,"p-ERK1/2 (Western blot, RCA, FIG. 4)",[2]; [7],inhibit
same,"p-Smad3 (Western blot, RCA, FIG. 4)",[2]; [7],inhibit
same,effect on the carotid artery and aorta,"[2]; sham group, 0.5 mg/kg i.p. once every 2 days for 3 weeks",little effect
same,"level of the mature TGFβ1 (Western blot, ascending aorta, FIG. 7)",[3],inhibit
same,"p-ERK1/2 (Western blot, ascending aorta, FIG. 7)",[3],inhibit
same,"p-Smad3 (Western blot, ascending aorta, FIG. 7)",[3],inhibit
same,incidence of BAPN-induced aortic dissection,[4],no effect
same,"level of the mature TGFβ1 (Western blot, ascending aorta)",[4],inhibited
same,"p-ERK (Western blot, ascending aorta)",[4],inhibited
same,"p-Smad2 (Western blot, ascending aorta)",[4],inhibited
same,"p-Smad3 (Western blot, ascending aorta)",[4],inhibited
same,survival rate of aneurysm model mice,[4],significantly improve
same,aortic inflammation,[4]; day 28,significantly inhibited
same,aortic remodeling,[4]; day 28,significantly inhibited
same,aortic thickening (H&E staining),[4]; day 28,significantly inhibited
same,"vascular expansion (ascending aorta, ultrasound)",[4]; day 28,inhibitory effect

# — patent US20260209294A1, “USE OF RECOMBINANT PROTEIN IN PREPARING DRUG FOR INHIBITING ANEURYSM” (HUAZHONG UNIVERSITY OF SCIENCE AND TECHNOLOGY, priority 2022, published 2026)
